Results reported in paper PMC6310800, “Exploiting correlated molecular-dynamics networks to counteract enzyme activity–stability trade-off” (Proceedings of the National Academy of Sciences of the …, 2018).

Substrate: O=Cc1cccc(C(=O)O)c1
Test: initial rates by HPLC, Michaelis-Menten fit
Assay type: biochemical, Escherichia coli
Conditions: 50 mM Li-hydroxypyruvate, 50 mM Tris-HCl pH 7.0, 2.4 mM ThDP, 9 mM MgCl2, 22 °C
Description: initial rates by HPLC, Michaelis-Menten fit on transketolase (TK)

B1: transketolase (TK) (Escherichia coli K-12; A282P/D469T/G506A/H192P/I365L/R520Q/S385Y) (protein)
chain: MSSRKELANAIRALSMDAVQKAKSGHPGAPMGMADIAEVLWRDFLKHNPQNPSWADRDRFVLSNGHGSMLIYSLLHLTGYDLPMEELKNFRQLHSKTPGHPEVGYTAGVETTTGPLGQGIANAVGMAIAEKTLAAQFNRPGHDIVDHYTYAFMGDGCMMEGISHEVCSLAGTLKLGKLIAFYDDNGISIDGPVEGWFTDDTAMRFEAYGWHVIRDIDGHDAASIKRAVEEARAVTDKPSLLMCKTIIGFGSPNKAGTHDSHGAPLGDAEIALTREQLGWKYPPFEIPSEIYAQWDAKEAGQAKESAWNEKFAAYAKAYPQEAAEFTRRMKGEMPSDFDAKAKEFIAKLQANPAKIASRKASQNALEAFGPLLPEFLGGSADLAPYNLTLWSGSKAINEDAAGNYIHYGVREFGMTAIANGISLHGGFLPYTSTFLMFVEYARNAVRMAALMKQRQVMVYTHDSIGLGETGPTHQPVEQVASLRVTPNMSTWRPCDQVESAVAWKYAVERQDGPTALILSQQNLAQQERTEEQLANIARGGYVLKDCAGQPELIFIATGSEVELAVAAYEKLTAEGVKARVVSMPSTDAFDKQDAAYRESVLPKAVTARVAVEAGIADYWYKYVGLNGAIVGMTTFGESAPAELLFEEFGFTVDNVVAKAKELL
notes: recombinant from plasmid pQR791, purified; homodimer
With B1 the Km was 2.3 (0.3) mM, the kcat was 3.8 s⁻¹ and the kcat/Km was 1650 M⁻¹ s⁻¹.

B2: transketolase (TK) (Escherichia coli K-12; A282P/D469T/H192P/I365L/R520Q/S385Y) (protein)
chain: MSSRKELANAIRALSMDAVQKAKSGHPGAPMGMADIAEVLWRDFLKHNPQNPSWADRDRFVLSNGHGSMLIYSLLHLTGYDLPMEELKNFRQLHSKTPGHPEVGYTAGVETTTGPLGQGIANAVGMAIAEKTLAAQFNRPGHDIVDHYTYAFMGDGCMMEGISHEVCSLAGTLKLGKLIAFYDDNGISIDGPVEGWFTDDTAMRFEAYGWHVIRDIDGHDAASIKRAVEEARAVTDKPSLLMCKTIIGFGSPNKAGTHDSHGAPLGDAEIALTREQLGWKYPPFEIPSEIYAQWDAKEAGQAKESAWNEKFAAYAKAYPQEAAEFTRRMKGEMPSDFDAKAKEFIAKLQANPAKIASRKASQNALEAFGPLLPEFLGGSADLAPYNLTLWSGSKAINEDAAGNYIHYGVREFGMTAIANGISLHGGFLPYTSTFLMFVEYARNAVRMAALMKQRQVMVYTHDSIGLGETGPTHQPVEQVASLRVTPNMSTWRPCDQVESAVAWKYGVERQDGPTALILSQQNLAQQERTEEQLANIARGGYVLKDCAGQPELIFIATGSEVELAVAAYEKLTAEGVKARVVSMPSTDAFDKQDAAYRESVLPKAVTARVAVEAGIADYWYKYVGLNGAIVGMTTFGESAPAELLFEEFGFTVDNVVAKAKELL
notes: as for B1
B2 was tested, and the Km was 1.3 (0.4) mM, the kcat was 2.1 s⁻¹ and the kcat/Km was 1620 M⁻¹ s⁻¹.

B3: transketolase (TK) (Escherichia coli K-12; D469T/R520Q/S385Y) (protein)
chain: MSSRKELANAIRALSMDAVQKAKSGHPGAPMGMADIAEVLWRDFLKHNPQNPSWADRDRFVLSNGHGSMLIYSLLHLTGYDLPMEELKNFRQLHSKTPGHPEVGYTAGVETTTGPLGQGIANAVGMAIAEKTLAAQFNRPGHDIVDHYTYAFMGDGCMMEGISHEVCSLAGTLKLGKLIAFYDDNGISIDGHVEGWFTDDTAMRFEAYGWHVIRDIDGHDAASIKRAVEEARAVTDKPSLLMCKTIIGFGSPNKAGTHDSHGAPLGDAEIALTREQLGWKYAPFEIPSEIYAQWDAKEAGQAKESAWNEKFAAYAKAYPQEAAEFTRRMKGEMPSDFDAKAKEFIAKLQANPAKIASRKASQNAIEAFGPLLPEFLGGSADLAPYNLTLWSGSKAINEDAAGNYIHYGVREFGMTAIANGISLHGGFLPYTSTFLMFVEYARNAVRMAALMKQRQVMVYTHDSIGLGETGPTHQPVEQVASLRVTPNMSTWRPCDQVESAVAWKYGVERQDGPTALILSQQNLAQQERTEEQLANIARGGYVLKDCAGQPELIFIATGSEVELAVAAYEKLTAEGVKARVVSMPSTDAFDKQDAAYRESVLPKAVTARVAVEAGIADYWYKYVGLNGAIVGMTTFGESAPAELLFEEFGFTVDNVVAKAKELL
notes: as for B1
With B3 the Km was 2.3 (0.3) mM, the kcat was 2.8 s⁻¹ and the kcat/Km was 1220 M⁻¹ s⁻¹.

B4: transketolase (TK) (Escherichia coli K-12; D469T/H192P/R520Q/S385Y) (protein)
chain: MSSRKELANAIRALSMDAVQKAKSGHPGAPMGMADIAEVLWRDFLKHNPQNPSWADRDRFVLSNGHGSMLIYSLLHLTGYDLPMEELKNFRQLHSKTPGHPEVGYTAGVETTTGPLGQGIANAVGMAIAEKTLAAQFNRPGHDIVDHYTYAFMGDGCMMEGISHEVCSLAGTLKLGKLIAFYDDNGISIDGPVEGWFTDDTAMRFEAYGWHVIRDIDGHDAASIKRAVEEARAVTDKPSLLMCKTIIGFGSPNKAGTHDSHGAPLGDAEIALTREQLGWKYAPFEIPSEIYAQWDAKEAGQAKESAWNEKFAAYAKAYPQEAAEFTRRMKGEMPSDFDAKAKEFIAKLQANPAKIASRKASQNAIEAFGPLLPEFLGGSADLAPYNLTLWSGSKAINEDAAGNYIHYGVREFGMTAIANGISLHGGFLPYTSTFLMFVEYARNAVRMAALMKQRQVMVYTHDSIGLGETGPTHQPVEQVASLRVTPNMSTWRPCDQVESAVAWKYGVERQDGPTALILSQQNLAQQERTEEQLANIARGGYVLKDCAGQPELIFIATGSEVELAVAAYEKLTAEGVKARVVSMPSTDAFDKQDAAYRESVLPKAVTARVAVEAGIADYWYKYVGLNGAIVGMTTFGESAPAELLFEEFGFTVDNVVAKAKELL
notes: as for B1
With B4 the Km was 2.2 (0.4) mM, the kcat was 3.5 s⁻¹ and the kcat/Km was 1590 M⁻¹ s⁻¹.

B5: transketolase (TK) (Escherichia coli K-12; A282P/D469T/H192P/R520Q/S385Y) (protein)
chain: MSSRKELANAIRALSMDAVQKAKSGHPGAPMGMADIAEVLWRDFLKHNPQNPSWADRDRFVLSNGHGSMLIYSLLHLTGYDLPMEELKNFRQLHSKTPGHPEVGYTAGVETTTGPLGQGIANAVGMAIAEKTLAAQFNRPGHDIVDHYTYAFMGDGCMMEGISHEVCSLAGTLKLGKLIAFYDDNGISIDGPVEGWFTDDTAMRFEAYGWHVIRDIDGHDAASIKRAVEEARAVTDKPSLLMCKTIIGFGSPNKAGTHDSHGAPLGDAEIALTREQLGWKYPPFEIPSEIYAQWDAKEAGQAKESAWNEKFAAYAKAYPQEAAEFTRRMKGEMPSDFDAKAKEFIAKLQANPAKIASRKASQNAIEAFGPLLPEFLGGSADLAPYNLTLWSGSKAINEDAAGNYIHYGVREFGMTAIANGISLHGGFLPYTSTFLMFVEYARNAVRMAALMKQRQVMVYTHDSIGLGETGPTHQPVEQVASLRVTPNMSTWRPCDQVESAVAWKYGVERQDGPTALILSQQNLAQQERTEEQLANIARGGYVLKDCAGQPELIFIATGSEVELAVAAYEKLTAEGVKARVVSMPSTDAFDKQDAAYRESVLPKAVTARVAVEAGIADYWYKYVGLNGAIVGMTTFGESAPAELLFEEFGFTVDNVVAKAKELL
notes: as for B1
B5 was tested, and the Km was 1.3 (0.2) mM, the kcat was 2.9 s⁻¹ and the kcat/Km was 2230 M⁻¹ s⁻¹.

B6: transketolase (TK) (Escherichia coli K-12; A282P/D469T/R520Q/S385Y) (protein)
chain: MSSRKELANAIRALSMDAVQKAKSGHPGAPMGMADIAEVLWRDFLKHNPQNPSWADRDRFVLSNGHGSMLIYSLLHLTGYDLPMEELKNFRQLHSKTPGHPEVGYTAGVETTTGPLGQGIANAVGMAIAEKTLAAQFNRPGHDIVDHYTYAFMGDGCMMEGISHEVCSLAGTLKLGKLIAFYDDNGISIDGHVEGWFTDDTAMRFEAYGWHVIRDIDGHDAASIKRAVEEARAVTDKPSLLMCKTIIGFGSPNKAGTHDSHGAPLGDAEIALTREQLGWKYPPFEIPSEIYAQWDAKEAGQAKESAWNEKFAAYAKAYPQEAAEFTRRMKGEMPSDFDAKAKEFIAKLQANPAKIASRKASQNAIEAFGPLLPEFLGGSADLAPYNLTLWSGSKAINEDAAGNYIHYGVREFGMTAIANGISLHGGFLPYTSTFLMFVEYARNAVRMAALMKQRQVMVYTHDSIGLGETGPTHQPVEQVASLRVTPNMSTWRPCDQVESAVAWKYGVERQDGPTALILSQQNLAQQERTEEQLANIARGGYVLKDCAGQPELIFIATGSEVELAVAAYEKLTAEGVKARVVSMPSTDAFDKQDAAYRESVLPKAVTARVAVEAGIADYWYKYVGLNGAIVGMTTFGESAPAELLFEEFGFTVDNVVAKAKELL
notes: as for B1
B6 was tested, and the Km was 2.1 (0.2) mM, the kcat was 3.2 s⁻¹ and the kcat/Km was 1520 M⁻¹ s⁻¹.

B7: transketolase (TK) (Escherichia coli K-12; A282P/D469T/G506A/H192P/R520Q/S385Y) (protein)
chain: MSSRKELANAIRALSMDAVQKAKSGHPGAPMGMADIAEVLWRDFLKHNPQNPSWADRDRFVLSNGHGSMLIYSLLHLTGYDLPMEELKNFRQLHSKTPGHPEVGYTAGVETTTGPLGQGIANAVGMAIAEKTLAAQFNRPGHDIVDHYTYAFMGDGCMMEGISHEVCSLAGTLKLGKLIAFYDDNGISIDGPVEGWFTDDTAMRFEAYGWHVIRDIDGHDAASIKRAVEEARAVTDKPSLLMCKTIIGFGSPNKAGTHDSHGAPLGDAEIALTREQLGWKYPPFEIPSEIYAQWDAKEAGQAKESAWNEKFAAYAKAYPQEAAEFTRRMKGEMPSDFDAKAKEFIAKLQANPAKIASRKASQNAIEAFGPLLPEFLGGSADLAPYNLTLWSGSKAINEDAAGNYIHYGVREFGMTAIANGISLHGGFLPYTSTFLMFVEYARNAVRMAALMKQRQVMVYTHDSIGLGETGPTHQPVEQVASLRVTPNMSTWRPCDQVESAVAWKYAVERQDGPTALILSQQNLAQQERTEEQLANIARGGYVLKDCAGQPELIFIATGSEVELAVAAYEKLTAEGVKARVVSMPSTDAFDKQDAAYRESVLPKAVTARVAVEAGIADYWYKYVGLNGAIVGMTTFGESAPAELLFEEFGFTVDNVVAKAKELL
notes: as for B1
In the case of B7, the Km is reported as 2.7 (0.4) mM, the kcat is reported as 3.9 s⁻¹ and the kcat/Km is reported as 1440 M⁻¹ s⁻¹.
